According to the supplement of paper PMC9876800:

System: peptide library, one residue held at a place counted from the S/T acceptor
Test: relative phosphorylation of the sub-library (ratio to the mean residue at this position); higher = residue favoured
Procedure, shortened: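 Relative sub-library phosphorylation, a ratio to the mean residue at that position, was obtained by phosphorimaging and densitometry of spots on streptavidin membranes. Before capture, purified recombinant kinases were incubated for 90 min under kinase-specific conditions with 50 μM biotinylated degenerate peptide sub-libraries and 50 μM ATP spiked with γ-32P-ATP. Each sub-library fixed one residue at one position around a central Ser/Thr.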

Sequence of STK32B, construct: Full length, human (Q9NY57 whole entry, looked up): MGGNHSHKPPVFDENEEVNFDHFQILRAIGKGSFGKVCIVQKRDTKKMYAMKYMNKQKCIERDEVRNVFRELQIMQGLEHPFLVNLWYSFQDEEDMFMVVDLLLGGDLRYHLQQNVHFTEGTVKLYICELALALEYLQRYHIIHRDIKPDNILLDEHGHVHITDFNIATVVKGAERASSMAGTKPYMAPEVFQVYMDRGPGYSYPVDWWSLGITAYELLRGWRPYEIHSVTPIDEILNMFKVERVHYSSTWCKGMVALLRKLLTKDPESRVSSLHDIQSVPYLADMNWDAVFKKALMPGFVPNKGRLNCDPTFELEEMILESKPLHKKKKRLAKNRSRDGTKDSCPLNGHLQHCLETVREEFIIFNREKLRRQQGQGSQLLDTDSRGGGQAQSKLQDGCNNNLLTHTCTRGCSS
Sequence of PIM2, construct: Full length with a 14aa C-terminal extension from Gateway cloning, human (Q9P1W9 whole entry, looked up): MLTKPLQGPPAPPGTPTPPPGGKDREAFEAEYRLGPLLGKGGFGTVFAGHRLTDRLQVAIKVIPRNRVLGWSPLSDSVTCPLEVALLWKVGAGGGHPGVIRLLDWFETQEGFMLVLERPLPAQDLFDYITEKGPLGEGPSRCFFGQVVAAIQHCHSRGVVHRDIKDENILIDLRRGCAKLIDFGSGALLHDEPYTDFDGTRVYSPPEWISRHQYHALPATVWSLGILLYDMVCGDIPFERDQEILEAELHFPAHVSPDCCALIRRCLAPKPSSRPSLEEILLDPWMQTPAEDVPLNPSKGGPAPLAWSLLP
Sequence of STK38, construct: Full length, human (Q15208 whole entry, looked up): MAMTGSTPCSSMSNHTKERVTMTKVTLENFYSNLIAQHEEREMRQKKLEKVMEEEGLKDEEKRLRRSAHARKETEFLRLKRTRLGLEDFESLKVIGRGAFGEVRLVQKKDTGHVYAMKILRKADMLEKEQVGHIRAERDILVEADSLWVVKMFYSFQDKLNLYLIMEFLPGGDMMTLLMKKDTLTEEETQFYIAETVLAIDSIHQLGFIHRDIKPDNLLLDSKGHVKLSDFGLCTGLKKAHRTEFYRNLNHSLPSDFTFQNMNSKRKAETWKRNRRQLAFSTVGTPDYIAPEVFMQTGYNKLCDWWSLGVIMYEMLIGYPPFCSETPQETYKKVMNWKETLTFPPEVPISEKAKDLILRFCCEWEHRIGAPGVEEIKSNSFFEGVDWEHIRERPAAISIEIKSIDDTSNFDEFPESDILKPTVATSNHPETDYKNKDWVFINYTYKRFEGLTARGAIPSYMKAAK

STK32B, construct: Full length, human (from UniProt Q9NY57)
relative phosphorylation
Settings | at +1 | at +2 | at +3 | at +4 | at -1 | at -2 | at -3 | at -4 | at -5
A fixed | 0.577 | 0.493 | 0.744 | 0.79 | 0.938 | 0.933 | 0.994 | 1.1 | 1.08
D fixed | 0.363 | 0.882 | 0.608 | 0.539 | 0.556 | 0.56 | 1.54 | 1.15 | 1.08
E fixed | 0.932 | 1.81 | 0.743 | 0.769 | 0.726 | 0.921 | 1.35 | 1.59 | 0.878
F fixed | 2.31 | 0.995 | 1.37 | 0.745 | 0.832 | 1.35 | 0.754 | 0.804 | 0.938
G fixed | 0.389 | 0.269 | 0.43 | 0.849 | 1.26 | 0.739 | 0.909 | 1.24 | 1.19
H fixed | 0.784 | 1.61 | 1.11 | 1.16 | 0.992 | 1.22 | 0.871 | 0.975 | 1.14
I fixed | 1.91 | 0.897 | 1.47 | 1.04 | 0.557 | 0.77 | 0.702 | 0.66 | 0.798
K fixed | 0.75 | 0.796 | 1.1 | 1.84 | 1.32 | 0.656 | 1.05 | 1.1 | 1.35
L fixed | 1.1 | 0.767 | 1.29 | 0.812 | 0.884 | 1.7 | 0.77 | 0.744 | 0.78
M fixed | 2.15 | 0.934 | 1.17 | 0.898 | 1.15 | 1.2 | 0.776 | 0.906 | 0.797
N fixed | 0.545 | 0.704 | 0.659 | 0.828 | 0.878 | 1.02 | 0.941 | 0.983 | 1.03
P fixed | 0.259 | 0.214 | 0.356 | 1.13 | 1.46 | 1.23 | 1.03 | 1.1 | 0.987
Q fixed | 1.01 | 0.86 | 0.826 | 0.864 | 1.03 | 0.88 | 0.753 | 0.88 | 0.88
R fixed | 0.939 | 1.01 | 1.05 | 1.87 | 2.02 | 1.02 | 2.17 | 1.32 | 1.39
V fixed | 1.26 | 0.765 | 1.4 | 0.742 | 0.593 | 0.797 | 0.821 | 0.764 | 0.736
W fixed | 0.713 | 1.39 | 1.41 | 1.14 | 0.634 | 0.755 | 0.65 | 0.784 | 0.844
Y fixed | 1 | 2.61 | 1.24 | 0.989 | 1.16 | 1.25 | 0.915 | 0.903 | 1.11
pThr fixed | 1.12 | 2.27 | 3.42 | 1.86 | 1.03 | 1.74 | 9.83 | 2.88 | 1.67
pTyr fixed | 2.4 | 63.9 | 6.44 | 10.7 | 1.72 | 7.31 | 2.44 | 1.38 | 1.77

PIM2, construct: Full length with a 14aa C-terminal extension from Gateway cloning, human (from UniProt Q9P1W9)
relative phosphorylation
Settings | at +1 | at +2 | at +3 | at +4 | at -1 | at -2 | at -3 | at -4 | at -5
A fixed | 1.17 | 0.889 | 0.802 | 0.851 | 0.852 | 0.568 | 0.578 | 0.935 | 0.695
D fixed | 0.638 | 0.729 | 0.859 | 0.833 | 0.593 | 0.32 | 0.269 | 0.497 | 0.413
E fixed | 0.834 | 0.713 | 0.752 | 0.764 | 0.587 | 0.343 | 0.295 | 0.666 | 0.413
F fixed | 0.653 | 0.75 | 0.909 | 0.874 | 0.887 | 0.911 | 0.388 | 0.776 | 0.547
G fixed | 3.18 | 0.978 | 0.99 | 1.08 | 0.814 | 0.418 | 0.43 | 0.891 | 0.789
H fixed | 0.871 | 1.48 | 1.31 | 1.04 | 1.16 | 2.64 | 0.78 | 1.01 | 1.01
I fixed | 0.723 | 0.606 | 0.709 | 0.841 | 0.699 | 0.541 | 0.366 | 0.837 | 0.588
K fixed | 1.14 | 1.33 | 1.24 | 1.28 | 1.33 | 1.7 | 1.91 | 1.9 | 2.91
L fixed | 0.663 | 0.664 | 0.721 | 0.793 | 0.912 | 0.594 | 0.381 | 0.79 | 0.608
M fixed | 0.861 | 0.71 | 0.783 | 0.845 | 0.921 | 0.649 | 0.397 | 0.985 | 0.6
N fixed | 1.11 | 1.07 | 0.958 | 1.11 | 1.18 | 1.04 | 0.48 | 0.988 | 0.728
P fixed | 0.727 | 1.13 | 1.04 | 1.3 | 1.86 | 0.524 | 0.453 | 0.755 | 0.791
Q fixed | 1.04 | 1.02 | 1.1 | 1.05 | 0.875 | 0.787 | 0.591 | 0.948 | 0.807
R fixed | 1.34 | 2.57 | 2.27 | 1.62 | 1.55 | 3.21 | 8.41 | 2.6 | 4.14
V fixed | 0.765 | 0.65 | 0.695 | 0.793 | 0.871 | 0.571 | 0.405 | 0.906 | 0.642
W fixed | 0.626 | 0.867 | 0.955 | 1.05 | 0.701 | 1.07 | 0.475 | 0.738 | 0.576
Y fixed | 0.66 | 0.848 | 0.923 | 0.885 | 1.2 | 1.11 | 0.395 | 0.777 | 0.741
pThr fixed | 0.857 | 0.654 | 0.668 | 0.888 | 0.379 | 0.35 | 0.342 | 0.632 | 0.471
pTyr fixed | 0.608 | 0.69 | 0.846 | 0.748 | 0.862 | 0.62 | 0.325 | 0.545 | 0.522

STK38, construct: Full length, human (from UniProt Q15208)
relative phosphorylation
Settings | at +1 | at +2 | at +3 | at +4 | at -1 | at -2 | at -3 | at -4 | at -5
A fixed | 0.75 | 1.35 | 0.73 | 0.791 | 0.743 | 0.739 | 0.655 | 0.978 | 0.83
D fixed | 0.673 | 1.2 | 0.723 | 1.06 | 0.728 | 0.6 | 0.558 | 0.704 | 0.609
E fixed | 0.644 | 0.483 | 0.631 | 0.807 | 0.524 | 0.494 | 0.476 | 0.71 | 0.477
F fixed | 0.893 | 0.79 | 1.04 | 0.894 | 0.545 | 0.758 | 0.413 | 0.596 | 0.557
G fixed | 1.36 | 1.33 | 1.23 | 1.16 | 1.45 | 0.936 | 0.771 | 1.09 | 0.88
H fixed | 1.04 | 2.51 | 1.3 | 1.03 | 1.18 | 1.56 | 1.35 | 1.26 | 3.01
I fixed | 1.07 | 0.495 | 0.738 | 0.891 | 0.325 | 0.38 | 0.31 | 0.575 | 0.498
K fixed | 0.845 | 0.783 | 1.12 | 1.13 | 1.94 | 2.24 | 2.21 | 2.17 | 2.44
L fixed | 0.932 | 0.516 | 1.02 | 0.897 | 0.752 | 0.451 | 0.377 | 0.618 | 0.546
M fixed | 1.59 | 0.575 | 0.831 | 0.929 | 0.751 | 0.571 | 0.455 | 0.745 | 0.477
N fixed | 1.13 | 1.11 | 0.954 | 1.16 | 1.34 | 1.23 | 0.841 | 0.878 | 0.795
P fixed | 0.335 | 0.69 | 0.872 | 1.28 | 1.65 | 0.83 | 1.18 | 1.04 | 0.749
Q fixed | 1.15 | 0.982 | 0.938 | 1.12 | 1.17 | 0.974 | 0.886 | 0.966 | 0.737
R fixed | 1.06 | 0.87 | 1.27 | 1.1 | 1.61 | 3.03 | 4.9 | 2.46 | 2.35
V fixed | 0.965 | 1.01 | 0.729 | 0.835 | 0.477 | 0.421 | 0.35 | 0.6 | 0.542
W fixed | 1.4 | 1.32 | 1.59 | 1.05 | 0.777 | 1.05 | 0.637 | 0.884 | 0.867
Y fixed | 1.18 | 0.992 | 1.29 | 0.865 | 1.03 | 0.727 | 0.636 | 0.733 | 0.636
pThr fixed | 1.01 | 0.848 | 0.709 | 0.92 | 0.546 | 0.635 | 0.572 | 0.738 | 0.545
pTyr fixed | 0.731 | 0.745 | 0.819 | 0.623 | 0.559 | 0.525 | 0.613 | 0.547 | 0.515
